Results as given in PMC11506546.

How the values were obtained:
[1] = biological target: rabbit skeletal-muscle F-actin (rabbit) (UniProt P68135); assay: co-sedimentation; 0.2-3.5 µM tropomyosin with 3 µM F-actin in T buffer (150 mM NaCl, 10 mM Tris-HCl pH 7.5, 2 mM MgCl2), 50 µL, 1 h at room temperature; 670,000 x g, 20 °C, 30 min; SDS-PAGE densitometry; Hill equation fit; apparent Kd
[2] = biological target: β-actin filament (cytoskeletal actin, polymerized from G-actin) (UniProt P60709); assay: TIRF microscopy of tropomyosin-decorated single actin filaments; control experiments: the same Tpm isoform labeled with AF488 and with AF568 (0.015 µM of each) mixed with 1 µM G-actin in D buffer, polymerized with 50 mM NaCl for 5-10 min, 10% PEG 300; decorated filaments captured on PLL-PEG/BSA coverslips in microfluidic channels, washed with TIR50 buffer
[3] = biological target: α-actin filament (muscle actin, polymerized from G-actin) (UniProt P68135); assay: as above

Sequence of Tpm1.6 (Tm2), unlabeled recombinant human cytoskeletal tropomyosin (natural protein; modification not given) (chain, as listed by the source): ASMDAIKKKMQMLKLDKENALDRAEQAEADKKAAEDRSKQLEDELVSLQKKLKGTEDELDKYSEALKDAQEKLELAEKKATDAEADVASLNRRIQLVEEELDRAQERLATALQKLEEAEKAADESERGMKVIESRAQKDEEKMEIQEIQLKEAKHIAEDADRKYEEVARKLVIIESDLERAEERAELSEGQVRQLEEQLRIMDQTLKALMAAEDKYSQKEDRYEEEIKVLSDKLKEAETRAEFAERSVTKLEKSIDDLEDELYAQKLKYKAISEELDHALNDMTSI

Question: Which Kd [1] does the source give for “Tpm1.1 AF568 (Tpm1.1 labeled at Cys-190 with Alexa Fluor 568 C5 maleimide) (natural protein)” here?
Answer: Its Kd is 240 nM.

Question: What about the ratio of Tpm in Ch1 (red, AF568)/Ch2 (green, AF488) on the filament, median [2] of the same substance?
Answer: Its ratio of Tpm in Ch1 (red, AF568)/Ch2 (green, AF488) on the filament, median is 0.9.

Question: What about the ratio of Tpm in Ch1 (red, AF568)/Ch2 (green, AF488) on the filament, median [3] of the same substance?
Answer: Its ratio of Tpm in Ch1 (red, AF568)/Ch2 (green, AF488) on the filament, median is 0.9.

Question: How did the Kd [1] turn out when “Tpm1.6 (Tm2), unlabeled recombinant human cytoskeletal tropomyosin (natural protein; modification not given)” was run?
Answer: Its Kd is 440 nM.

Question: Which Kd [1] does the source give for “Tpm1.1 AF488 (Tpm1.1 labeled at Cys-190 with Alexa Fluor 488 C5 maleimide) (natural protein)” here?
Answer: Its Kd is 170 nM.

Question: For “Tpm1.1 (αTm), unlabeled recombinant rat skeletal/cardiac muscle tropomyosin (natural protein)”, which Kd [1] is on record?
Answer: The Kd was 640 nM.
